Experimental findings from patent publication US20170226213A1 (Daiichi Sankyo, published 2017) are described below.

The target of assay [1] is T1, human FGFR4 (FGF receptor 4) on cells (human, UniProt P22455 22-802). The assay can be described thus: cell-based or functional assay.
Assay [2] has as its target T1, human FGFR4 (FGF receptor 4) on cells. Kind of assay: flow cytometry titration on Huh-7 cells. On the procedure:
Huh-7 cells (obtained from JCRB Cell Bank) were cultured in DMEM containing 10% FBS under standard conditions at 37° C. and 5% CO₂. Cells were harvested with 5 mM EDTA (in PBS) and 200,000 cells per sample were incubated with indicated anti-FGFR4 antibody (1:3 serial dilution; starting concentration 30 μg/ml) for 30 min at 4° C. After incubation, cells were washed and bound antibody was determined using a Phycoerythrin-labeled anti-human IgG antibody (Jackson Immuno Research). Antibody binding to Huh-7 was measured with a BD Accuri C6 flow cytometer (BD Biosciences, San Jose, Calif.; U.S.A.) and analyzed using the AccuriC6 software. Subsequently, the equilibrium dissociation constant (KD) was determined using Prism (GraphPad Software, La Jolla, Calif., U.S.A.).

Assay [3] shares this target. Kind of assay: cell-based or functional assay. This is another data set of the same source.
Assay [4] deals with T2, extracellular domain of human FGFR4 (myc- and His-tagged) (human, UniProt P22455 22-369).
T2 construct: extracellular domain; Captured on the plate by a mouse anti-His tag antibody; also called human FGFR4-His/Myc; FGFR4 ECD; not shown: myc and His tags
Kind of assay: ELISA, FGFR4 ECD (myc, His) captured by anti-His antibody. On the procedure: (§1) Mouse anti-His tag antibody was obtained from Bio-Rad (Hercules, Calif.; U.S.A.) and coated onto MaxiSorp® flat-bottom 96 well ELISA plates (Sigma, St. Louis, Mo.; U.S.A.) at a concentration of 2 μg/ml. After coating, the extracellular domain of human FGFR4 (myc- and His-tagged) was added at a concentration of 0.01 μg/ml. After removal of unbound protein, indicated antiFGFR4 antibody was added (1:4 serial dilution, starting concentration 10 μg/ml) and binding was finally detected with the AttoPhos® AP Fluorescent Substrate System (Promega) using an alkaline-phosphatase coupled goat anti-human IgG F(ab′) fragment on the Fluostar Omega fluorescent plate reader instrument from BMG Labtech (Ortenberg; Germany). Subsequently, dissociation constants were calculated for U4-3, -5 and -9 using Graph Pad Prism (Table 5).
Background: ELISA stands for enzyme-linked immunosorbent assay.

Assay [5] concerns the target T2, extracellular domain of human FGFR4 …. Kind of assay: ELISA, FGFR4 ECD (myc/His) captured by anti-His antibody, AP-coupled anti-human IgG F(ab') detection. On the procedure:
as §1

Assay [6] deals with antigen of the Biacore assay (FGFR4; construct not stated) (UniProt P22455 22-369, limits assumed). The assay can be described thus: Biacore T100, antibody captured by anti-human IgG, antigen injected, bivalent analyte model, KD1, average of 3. On the procedure: Standard amine coupling was applied to prepare a goat anti-human IgG capturing S-CM5 sensor chip (the reference flow cell contained the capturing antibody as well). The carboxymethylated dextran (CMD) surface was activated by injecting a mixture of 200 mM EDC and 50 mM NHS for 7 min (10 μl/min). Subsequently, 30 μg/ml anti-human IgG antibody diluted in 10 mM Na acetate pH 5.0 was injected for 7 minutes (10 μl/min). The remaining unreacted esters were quenched with 1 M Ethanolamine pH 8.5 (7 min, […]). Surface densities of 17892-18376 RU were obtained for the antihuman IgG antibody.
Interaction analyses of antigen with reversibly captured antibody were performed using a Biacore™ T100 instrument (GE Healthcare Bio-Sciences (Piscataway, N.J.; U.S.A.)) at 25° C. in HBS analysis buffer (10 mM HEPES pH 7.4, 150 mM NaCl, 50 μM EDTA, 0.05% Tween 20). 37-38 RU of specific antibody was captured on a flow cell. […] The dissociation was recorded for 10 min at the same flow rate. […]
Data processing (e.g. blank run subtraction) and evaluation was performed by global fitting applying a bivalent analyte binding model using the Biacore T100 Evaluation Software version 2.0.3. The equilibrium dissociation constant KD1 was calculated by dividing kd1 with ka1.
(In general: In SPR one partner is held on a chip, and binding of the other changes the refractive index at the surface.)

B1: FGFR4 binding Fab U4-1 (Fab, V domains shown)
VH: EVQLLESGGGLVQPGGSLRLSCAASGFTFSRNYMSWVRQAPGKGLEWVSAISGSGGSTYYADSVKGRFTISRDNSKNTLYLQMNSLRAEDTAVYYCARVTSPGAFDIWGQGTLVTVSS
VL: QSVLTQPPSASGTPGQRVTISCSGGTSNIGTNTVNWYQQLPGTAPKLLIYRNNQRPSGVPDRFSGSKSGTSSSLAISGLRSEDEADYYCAAWDDSLNGPYVVFGGGTKLTVLG
B1: in assay [1], the “Elk1 luciferase reporter gene assay, % of control (+rhFGF 17), Fab at 0.1 µg/ml” value was 70.4 % of control (+rhFGF 17); the “Elk1 luciferase reporter gene assay, % of control (+rhFGF 17), Fab at 1 µg/ml” value is 39.6 % of control (+rhFGF 17); the “Elk1 luciferase reporter gene assay, % of control (+rhFGF 17), Fab at 10 µg/ml” value was 32 % of control (+rhFGF 17).

B2: human anti-FGFR4 antibody U4-1 (antibody, V domains shown)
VH: EVQLLESGGGLVQPGGSLRLSCAASGFTFSRNYMSWVRQAPGKGLEWVSAISGSGGSTYYADSVKGRFTISRDNSKNTLYLQMNSLRAEDTAVYYCARVTSPGAFDIWGQGTLVTVSS
VL: QSVLTQPPSASGTPGQRVTISCSGGTSNIGTNTVNWYQQLPGTAPKLLIYRNNQRPSGVPDRFSGSKSGTSSSLAISGLRSEDEADYYCAAWDDSLNGPYVVFGGGTKLTVLG
For B2, the Kd in assay [2] stood at 0.85 nM.

B3: human anti-FGFR4 antibody U4-8 (antibody, V domains shown)
VH: EVQLLESGGGLVQPGGSLRLSCAASGFTFSSNYMSWVRQAPGKGLEWVSSISGSGGRTYYADSVKGRFTISRDNSKNTLYLQMNSLRAEDTAVYYCARMTVFGAATLWGQGTLVTVSS
VL: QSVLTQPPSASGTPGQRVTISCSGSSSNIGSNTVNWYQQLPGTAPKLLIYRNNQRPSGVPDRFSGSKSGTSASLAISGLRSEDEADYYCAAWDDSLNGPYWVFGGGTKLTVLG
notes: IgG format
The molecule B3 had a Kd in assay [2] of 0.46 nM.

B4: FGFR4 binding Fab U4-2 (Fab, V domains shown)
VH: EVQLLESGGGLVQPGGSLRLSCAASGFTFSKAWMSWVRQAPGKGLEWVSAISGSGGSTYYADSVKGRFTISRDNSKNTLYLQMNSLRAEDTAVYYCARLYSYGDFDHWGQGTLVTVSS
VL: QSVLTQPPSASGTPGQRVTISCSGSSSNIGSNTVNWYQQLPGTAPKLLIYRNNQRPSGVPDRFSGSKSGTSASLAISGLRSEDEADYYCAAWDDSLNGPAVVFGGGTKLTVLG
As for B4, in assay [1], the “Elk1 luciferase reporter gene assay, % of control (+rhFGF 17), Fab at 0.1 µg/ml” value was 112 % of control (+rhFGF 17); the “Elk1 luciferase reporter gene assay, % of control (+rhFGF 17), Fab at 1 µg/ml” value is 43.8 % of control (+rhFGF 17); the “Elk1 luciferase reporter gene assay, % of control (+rhFGF 17), Fab at 10 µg/ml” value is 26.6 % of control (+rhFGF 17).

B5: FGFR4 binding Fab U4-8 (Fab, V domains shown)
VH: EVQLLESGGGLVQPGGSLRLSCAASGFTFSSNYMSWVRQAPGKGLEWVSSISGSGGRTYYADSVKGRFTISRDNSKNTLYLQMNSLRAEDTAVYYCARMTVFGAATLWGQGTLVTVSS
VL: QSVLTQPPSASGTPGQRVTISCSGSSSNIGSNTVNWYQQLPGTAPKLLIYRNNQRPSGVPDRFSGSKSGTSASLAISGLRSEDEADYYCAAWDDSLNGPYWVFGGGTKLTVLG
B5: in assay [1], the “Elk1 luciferase reporter gene assay, % of control (+rhFGF 17), Fab at 0.1 µg/ml” value is 65.2 % of control (+rhFGF 17); the “Elk1 luciferase reporter gene assay, % of control (+rhFGF 17), Fab at 1 µg/ml” value was 22.5 % of control (+rhFGF 17); the “Elk1 luciferase reporter gene assay, % of control (+rhFGF 17), Fab at 10 µg/ml” value is 12.7 % of control (+rhFGF 17).

B6: human anti-FGFR4 antibody U4-2 (antibody, V domains shown)
VH: EVQLLESGGGLVQPGGSLRLSCAASGFTFSKAWMSWVRQAPGKGLEWVSAISGSGGSTYYADSVKGRFTISRDNSKNTLYLQMNSLRAEDTAVYYCARLYSYGDFDHWGQGTLVTVSS
VL: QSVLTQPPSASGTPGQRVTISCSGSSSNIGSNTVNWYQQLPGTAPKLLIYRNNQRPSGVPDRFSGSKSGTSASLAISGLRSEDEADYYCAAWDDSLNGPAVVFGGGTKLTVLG
B6 came in with a Kd in assay [2] of 0.15 nM.

B7: human anti-FGFR4 antibody U4-7 (antibody, V domains shown)
VH: EVQLLESGGGLVQPGGSLRLSCAASGFTFSDYYMSWVRQAPGKGLEWVSAISGSGGSTYYADSVKGRFTISRDNSKNTLYLQMNSLRAEDTAVYYCATLATYGPFDDWGQGTLVTVSS
VL: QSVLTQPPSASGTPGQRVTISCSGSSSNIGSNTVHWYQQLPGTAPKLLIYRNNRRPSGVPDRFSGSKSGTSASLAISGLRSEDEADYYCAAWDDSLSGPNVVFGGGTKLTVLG
notes: IgG format
In assay [2], B7 displayed a Kd of 1.3 nM.

B8: FGFR4 binding Fab U4-7 (Fab, V domains shown)
VH: EVQLLESGGGLVQPGGSLRLSCAASGFTFSDYYMSWVRQAPGKGLEWVSAISGSGGSTYYADSVKGRFTISRDNSKNTLYLQMNSLRAEDTAVYYCATLATYGPFDDWGQGTLVTVSS
VL: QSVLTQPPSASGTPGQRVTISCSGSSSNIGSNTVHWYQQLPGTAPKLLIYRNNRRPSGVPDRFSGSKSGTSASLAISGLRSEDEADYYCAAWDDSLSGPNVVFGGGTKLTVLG
Turning to B8, in assay [1], the “Elk1 luciferase reporter gene assay, % of control (+rhFGF 17), Fab at 0.1 µg/ml” value is 72.6 % of control (+rhFGF 17); the “Elk1 luciferase reporter gene assay, % of control (+rhFGF 17), Fab at 1 µg/ml” value was 33.1 % of control (+rhFGF 17); the “Elk1 luciferase reporter gene assay, % of control (+rhFGF 17), Fab at 10 µg/ml” value is 16.8 % of control (+rhFGF 17).

B9: human anti-FGFR4 antibody U4-9 (antibody, V domains shown)
VH: EVQLLESGGGLVQPGGSLRLSCAASGFTFSDYYMSWIRQAPGKGLEWVSTISGSGGSTYYADSVKGRFTISRDNSKNTLYLQMNSLRAEDTAVYYCARLTAYGHVDSWGQGTLVTVSS
VL: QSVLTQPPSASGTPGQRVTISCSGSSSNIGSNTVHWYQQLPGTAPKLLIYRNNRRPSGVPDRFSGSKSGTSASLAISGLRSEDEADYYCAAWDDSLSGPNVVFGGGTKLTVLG
notes: IgG format
In the case of B9, the “IC50, NIH3T3 spheroid growth assay (CellTiter-Glo)” value in assay [3] is 10.6 nM. In addition, the Kd came out at 0.07 nM in assay [4] and 0.12 nM in assay [6]. Also, the “EC50 (read off the curve)” value in assay [5] was about 0.08 nM.

B10: FGFR4 binding Fab U4-5 (Fab, V domains shown)
VH: EVQLLESGGGLVQPGGSLRLSCAASGFTFSSNYMNWVRQAPGKGLEWVAVISYDGSNKYYADSVKGRFTISRDNSKNTLYLQMNSLRAEDTAVYYCVTKSRDFWRGPFDYWGQGTLVTVSS
VL: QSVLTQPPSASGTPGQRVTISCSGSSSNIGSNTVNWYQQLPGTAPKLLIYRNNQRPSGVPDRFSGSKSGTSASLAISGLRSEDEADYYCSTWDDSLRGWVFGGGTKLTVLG
Regarding B10, in assay [1], the “Elk1 luciferase reporter gene assay, % of control (+rhFGF 17), Fab at 0.1 µg/ml” value was 116 % of control (+rhFGF 17); the “Elk1 luciferase reporter gene assay, % of control (+rhFGF 17), Fab at 1 µg/ml” value is 43.2 % of control (+rhFGF 17); the “Elk1 luciferase reporter gene assay, % of control (+rhFGF 17), Fab at 10 µg/ml” value is 16.3 % of control (+rhFGF 17).

B11: human anti-FGFR4 antibody U4-5 (antibody, V domains shown)
VH: EVQLLESGGGLVQPGGSLRLSCAASGFTFSSNYMNWVRQAPGKGLEWVAVISYDGSNKYYADSVKGRFTISRDNSKNTLYLQMNSLRAEDTAVYYCVTKSRDFWRGPFDYWGQGTLVTVSS
VL: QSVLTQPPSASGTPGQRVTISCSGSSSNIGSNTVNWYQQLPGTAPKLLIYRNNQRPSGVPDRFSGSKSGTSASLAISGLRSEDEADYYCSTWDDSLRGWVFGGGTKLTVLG
notes: IgG format
Consider B11, for which the Kd in assay [2] turned out to be 1.5 nM; in assay [4], 0.08 nM.

B12: FGFR4 binding Fab U4-4 (Fab, V domains shown)
VH: EVQLLESGGGLVQPGGSLRLSCAASGFTFSSNYMSWVRQAPGKGLEWVSLISGSGGSTYYADSVQGRFTISRDNSKNTLYLQMNSLRAEDTAVYYCARNTAGFGYFDLWGQGTLVTVSS
VL: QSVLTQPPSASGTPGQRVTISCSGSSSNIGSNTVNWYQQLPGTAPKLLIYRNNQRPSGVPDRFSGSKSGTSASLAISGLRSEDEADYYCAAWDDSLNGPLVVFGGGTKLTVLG
Take B12: in assay [1], the “Elk1 luciferase reporter gene assay, % of control (+rhFGF 17), Fab at 0.1 µg/ml” value was 82.2 % of control (+rhFGF 17); the “Elk1 luciferase reporter gene assay, % of control (+rhFGF 17), Fab at 1 µg/ml” value was 28.8 % of control (+rhFGF 17); the “Elk1 luciferase reporter gene assay, % of control (+rhFGF 17), Fab at 10 µg/ml” value is 20.1 % of control (+rhFGF 17).

B13: human anti-FGFR4 antibody U4-6 (antibody, V domains shown)
VH: EVQLLESGGGLVQPGGSLRLSCAASGFTFSDYYMNWVRQAPGKGLEWVSAIGGSGDRTYYADSVKGRFTISRDNSKNTLYLQMNSLRAEDTAVYYCALGGSYFGYWGQGTLVTVSS
VL: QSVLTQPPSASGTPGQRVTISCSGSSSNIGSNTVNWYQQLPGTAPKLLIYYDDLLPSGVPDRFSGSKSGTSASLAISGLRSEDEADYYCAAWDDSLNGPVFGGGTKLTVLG
notes: IgG format
For B13, in assay [2], the Kd is 1.6 nM.

The term EC50 (read off the curve) denotes the concentration needed to bring the measured effect to its halfway point.
